Reference: patent US20250092133A1 (Amgen, published 2025)

How the values were obtained:
murine CDH3 on cells = biological target: T1, murine CDH3 on cells (mouse, UniProt P10287 100-822); assay: flow cytometry, transfected CHO cells; crude periplasmic scFv extract; anti-FLAG M2 + anti-mouse IgG Fcγ-PE
T1 construct: negative control; also called mouse CDH3
T1 sequence: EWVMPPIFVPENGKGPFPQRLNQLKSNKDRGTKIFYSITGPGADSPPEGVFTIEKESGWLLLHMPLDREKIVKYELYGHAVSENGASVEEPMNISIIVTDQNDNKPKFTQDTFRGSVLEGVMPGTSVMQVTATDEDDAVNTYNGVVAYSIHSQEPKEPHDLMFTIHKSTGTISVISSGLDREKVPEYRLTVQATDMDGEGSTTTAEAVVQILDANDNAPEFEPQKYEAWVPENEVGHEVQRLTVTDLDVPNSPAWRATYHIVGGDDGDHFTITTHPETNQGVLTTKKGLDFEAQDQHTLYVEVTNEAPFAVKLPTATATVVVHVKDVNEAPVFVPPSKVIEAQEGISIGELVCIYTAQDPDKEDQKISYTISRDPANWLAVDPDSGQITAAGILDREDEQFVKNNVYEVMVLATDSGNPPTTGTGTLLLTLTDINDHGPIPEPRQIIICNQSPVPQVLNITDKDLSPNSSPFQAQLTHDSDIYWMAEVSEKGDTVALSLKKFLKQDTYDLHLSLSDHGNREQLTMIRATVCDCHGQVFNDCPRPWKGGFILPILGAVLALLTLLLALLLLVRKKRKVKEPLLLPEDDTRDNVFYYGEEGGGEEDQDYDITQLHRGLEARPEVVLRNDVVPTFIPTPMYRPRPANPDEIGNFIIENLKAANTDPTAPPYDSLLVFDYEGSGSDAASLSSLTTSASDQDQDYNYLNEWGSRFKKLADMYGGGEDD
Method: (§1) Cells transfected with human or murine CDH3, or with the chimeric human/mouse CDH3 molecules (see Example 1) were stained with crude, undiluted periplasmic extract containing scFv binding to human/macaque CDH3. […] As negative control, cells were incubated with PBS/2% FCS instead of the periplasmic extract. The samples were measured by flow cytometry.

[1] = biological target: T2, Hu CDH3 Dom3 mu (aa 328-440), human/mouse chimeric CDH3 on CHO cells (chimeric hu/mu); assay: as above
Method: as §1

[2] = biological target: Hu CDH3 Dom3A mu (aa 328-363), human/mouse chimeric CDH3 on CHO cells (chimeric hu/mu, UniProt P22223 108-681 (human entry)); assay: as above
Method: as §1

[3] = biological target: T3, Hu CDH3 Dom3C mu (aa 404-440), human/mouse chimeric CDH3 on CHO cells (chimeric hu/mu, UniProt P22223 108-681 (human entry)); assay: as above
Method: as §1

[4] = biological target: T4, human CDH3 (P-cadherin) on cells (human, UniProt P22223 108-829); assay: flow cytometry, transfected CHO cells; crude undiluted periplasmic scFv extract; anti-FLAG M2 + anti-mouse IgG Fcγ-PE; control PBS/2% FCS
T4 construct: The entry includes signal peptide and pro-peptide; extracellular domain D1 starts at aa 108; also called hu CDH3; hu CDH-3
Method: as §1

[5] = biological target: T5, Hu CDH3 Dom2 mu (aa 216-327), human/mouse chimeric CDH3 on CHO cells (chimeric hu/mu); assay: as above
T5 chain: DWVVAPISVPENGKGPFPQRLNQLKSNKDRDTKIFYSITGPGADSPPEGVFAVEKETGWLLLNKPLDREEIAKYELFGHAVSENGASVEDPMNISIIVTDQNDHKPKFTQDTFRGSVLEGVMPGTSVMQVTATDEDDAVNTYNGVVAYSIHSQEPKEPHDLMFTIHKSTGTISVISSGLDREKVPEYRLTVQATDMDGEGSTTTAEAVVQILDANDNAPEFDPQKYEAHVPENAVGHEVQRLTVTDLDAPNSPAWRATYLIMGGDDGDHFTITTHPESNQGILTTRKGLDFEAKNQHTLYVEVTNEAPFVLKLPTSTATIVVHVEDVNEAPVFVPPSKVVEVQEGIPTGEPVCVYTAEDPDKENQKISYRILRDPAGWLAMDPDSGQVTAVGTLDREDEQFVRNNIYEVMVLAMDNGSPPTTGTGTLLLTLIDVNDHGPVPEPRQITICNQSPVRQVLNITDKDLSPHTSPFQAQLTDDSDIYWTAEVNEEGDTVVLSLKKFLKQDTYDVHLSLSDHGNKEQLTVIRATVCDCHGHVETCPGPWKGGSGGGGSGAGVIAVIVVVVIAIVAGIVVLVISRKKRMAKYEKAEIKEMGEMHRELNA
Method: as §1

[6] = biological target: Hu CDH3 Dom3B mu (aa 364-403), human/mouse chimeric CDH3 on CHO cells (chimeric hu/mu, UniProt P22223 108-681 (human entry)); assay: as above
Method: as §1

[7] = biological target: T3, Hu CDH3 Dom3C mu (aa 404-440), …; assay: as above
Method: as §1

[8] = biological target: T6, Hu CDH3 Dom1B mu (aa 144-179), human/mouse chimeric CDH3 on CHO cells (chimeric hu/mu, UniProt P22223 108-681 (human entry)); assay: flow cytometry, transfected CHO cells; crude periplasmic scFv extract; anti-FLAG M2 + anti-mouse IgG Fcγ-PE
T6 chain: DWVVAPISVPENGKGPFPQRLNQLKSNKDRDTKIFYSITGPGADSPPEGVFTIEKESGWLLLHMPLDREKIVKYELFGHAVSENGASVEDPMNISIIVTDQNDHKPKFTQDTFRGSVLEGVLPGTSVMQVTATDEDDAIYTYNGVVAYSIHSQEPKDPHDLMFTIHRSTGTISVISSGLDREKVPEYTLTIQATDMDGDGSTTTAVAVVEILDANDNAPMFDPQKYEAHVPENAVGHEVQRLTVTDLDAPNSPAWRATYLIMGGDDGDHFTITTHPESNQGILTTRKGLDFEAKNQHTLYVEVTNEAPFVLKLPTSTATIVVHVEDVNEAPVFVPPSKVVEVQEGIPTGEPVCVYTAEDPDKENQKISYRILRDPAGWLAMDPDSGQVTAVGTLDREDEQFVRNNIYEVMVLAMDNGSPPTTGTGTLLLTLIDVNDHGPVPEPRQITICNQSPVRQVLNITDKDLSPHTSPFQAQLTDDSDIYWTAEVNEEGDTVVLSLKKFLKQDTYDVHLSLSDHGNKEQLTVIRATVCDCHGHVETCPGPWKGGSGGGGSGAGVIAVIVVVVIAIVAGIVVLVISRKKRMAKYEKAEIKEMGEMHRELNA
Method: as §1

[9] = biological target: T7, Hu CDH3 Dom1C mu (aa 180-215), human/mouse chimeric CDH3 on CHO cells (chimeric hu/mu, UniProt P22223 108-681 (human entry)); assay: flow cytometry, transfected CHO cells; crude undiluted periplasmic scFv extract; anti-FLAG M2 + anti-mouse IgG Fcγ-PE; control PBS/2% FCS
T7 chain: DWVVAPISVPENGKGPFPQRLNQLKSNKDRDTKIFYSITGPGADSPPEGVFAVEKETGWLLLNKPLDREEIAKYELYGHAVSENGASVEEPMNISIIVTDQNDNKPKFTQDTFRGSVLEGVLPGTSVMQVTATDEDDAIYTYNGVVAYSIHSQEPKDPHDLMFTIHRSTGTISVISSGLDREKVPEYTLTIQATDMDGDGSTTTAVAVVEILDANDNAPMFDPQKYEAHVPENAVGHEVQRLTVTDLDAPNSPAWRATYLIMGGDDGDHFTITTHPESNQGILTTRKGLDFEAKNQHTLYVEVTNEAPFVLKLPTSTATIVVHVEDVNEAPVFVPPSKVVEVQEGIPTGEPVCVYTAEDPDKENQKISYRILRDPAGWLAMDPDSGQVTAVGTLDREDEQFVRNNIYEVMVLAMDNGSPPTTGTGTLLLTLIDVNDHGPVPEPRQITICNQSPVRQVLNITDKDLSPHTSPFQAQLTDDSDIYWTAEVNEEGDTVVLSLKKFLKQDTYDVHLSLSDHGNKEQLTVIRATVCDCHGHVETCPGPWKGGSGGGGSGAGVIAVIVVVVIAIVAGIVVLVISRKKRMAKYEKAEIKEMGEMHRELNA
Method: as §1

[10] = biological target: T2, Hu CDH3 Dom3 mu (aa 328-440), …; assay: as above
Method: as §1

Row | Binder | binding result (murine CDH3 on cells) | binding result [1] | binding result [2] | binding result [3] | binding result [4] | binding result [5] | binding result [6] | binding result [7] | binding result [8] | binding result [9] | binding result [10]
1 | CDH3-32 scFv (scFv) scFv: EVQLVEQPGAELVRPGTSVKLSCKASGYTFTSYWMHWVKQRPGQGLEWIGVIDTSDSYTIYNQKFKGKATLTVDTSSSTAYMQLSSLTSEDSSVYFCARSGPGYFDVWGQGTTVTVSSGGGGSGGGGSGGGGSELQMTQSPASLSASVGETVTITCRASENIYSYLAWYQQKQGKSPQLLVYNAKTLAEGVPSRFSGSGSGTQFSLKINSLQPEDFGSYYCQHHYGTPYTFGGGTKLEIK | no binding | no binding | no binding | no binding | binds | binds | binds | – | – | – | –
2 | CDH3-33 scFv (scFv) scFv: EVQLVEQPGAELVRPGTSVKLSCKASGYTFTSYWMHWVKQRPGQGLEWIGVIDTSDSYTIYNQKFKGKATLTVDTSSSTAYMQLSSLTSGDSSVYFCARSGPGYFDVWGQGTTVTVSSGGGGSGGGGSGGGGSELVMTQSPASLSASVGETVTITCRASGNIHNYLAWYQQKQGKSPQLLVYNAKTLADGVPSRFSGSGSGTQYSLKINSLQPEDFGTYYCQHFWSTPYTFGGGTKLEIK | no binding | no binding | – | – | binds | binds | binds | binds | – | – | –
3 | CDH3-6 scFv (scFv) scFv: EVQLVEESGPELVKPGASVKISCKASGYAFSSSWMNWVKQRPGKGLEWIGRIYPGDGETKYNGKFKGKATLTADKSSSTAYMQLSSLTSEDSAVYFCARQRDYGALYAMDYWGQGTSVTVSSGGGGSGGGGSGGGGSELVMTQSPASLSASVGETVTITCRASDDIYSYLAWYQQKQGKSPQLLVYNAKTLAEGVPSRFSGSGSGTQFSLKINSLQPEDFGTYYCQNHYVTPFTFGAGTKLEIK | – | – | – | – | binds | binds | – | – | no binding | binds | binds
4 | CDH3-5 (scFv, Used as crude periplasmic extract and detected through a FLAG tag; also called CDH3-5 scFv) scFv: EVQLVEQSGAELVKPGASVKISCKASGYAFSTSWMNWVKQRPGKGLEWIGRIYPGDGETKYNGKFKGKATLTADKSSSTAYMQLSSLTSEDSAVYFCARQRDYGALYALDYWGQGTRVTVSSGGGGSGGGGSGGGGSELMMTQTPASLSASVGETVTFTCRASENIYSYLAWYQQKQGKSPQLLVYNAKTLAEGVPSRFSGSGSGTQFSLKINSLQPEDFGSYYCQHHYVPPYTFGGGTKLEIK | – | – | – | – | binds | binds | – | – | no binding | binds | –
5 | CDH3-7 (scFv, Used as crude periplasmic extract and detected through a FLAG tag; also called CDH3-7 scFv) scFv: EVQLVEQSGAELVKPGASVKISCKASGYAFSSSWMNWVKQRPGKGLEWIGRIYPGDGETKYNGKFKGKATLTADKSSSTAYMQLSTLTSEDSAVYFCARQRDYGALYAMDYWGQGTSVTVSSGGGGSGGGGSGGGGSELQMTQSPASLSASVGETVTITCRLSENIYSYLAWYRQKEGESPQLLVYNSKTLAEGVPSRFSGSGSGTQFSLKINSLQPEDFGNYYCQNHYGFPFTFGAGTKLEIK | – | – | – | – | – | – | – | – | – | – | binds
